Positions count from the first letter of the chain named.
B1: h29 (antibody, V domains shown)
VH: QVQLVESGGGVVQPGRSLTLSCAASGFTFSRYGMHWVRQAPGKGLEWVTVITYDGRKKYYADSVKGRFTISRDNSQNTLSLQMNSLRAEDTAVYYCAKDLLIGYGMDVWGQGTTVTVSS
VL: DIVMTQSPDSLAVSLGERATIKCKSSQSVFFSSSNKNFLTWYQQKPGQPPKLLIYWASTRESGVPDRFSGSGSGTDFTLTINNLQAEDVTVYYCQQCFSTPYSFGQGTKLEIKR
B2: murine monoclonal antibody 1D6 (antibody, V domains shown)
VH: QIQLVQSGPELKKPGETVKISCKASGYTFTNYAVNWVIQAPGKGLKWMGWINAYTGEPTYADDFKGRFAFSLETSASTAYLQINNLKNEDMGIYFCARGGYDTYALDYWGQGTSVTVSS
VL: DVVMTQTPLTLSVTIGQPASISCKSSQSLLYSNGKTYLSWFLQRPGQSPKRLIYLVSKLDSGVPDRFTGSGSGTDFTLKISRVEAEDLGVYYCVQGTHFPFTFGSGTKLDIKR
notes: also called 106 (anti-zzs01); ID6
B3: murine monoclonal antibody F11 (antibody, V domains shown)
VH: EVQLQQSGPELVKPGASVKISCKTSGYTFTEYTMHWVKQSHGKTLEWIGGIYPNNSGTRYNQKFRGKATLTADKSSSTAYMELRSLTTEDSAVYYCHRYELYWYFDVWGAGTTVTVSS
VL: DIVLTQSPASLAVSLGQRATISCRASKSVSTAGYSYMHWYQQKPGQPPKLLIYLTSNLESGVPARFSGSGSGTDFTLNIHPVEEEDAATYYCQHSREVPYTFGGGTKLEIKR
notes: also called F11 (anti-zzs05)
B4: h4 (antibody, V domains shown)
VH: QVQLVESGGGLVKPGGSLRLSCAASGFTFSDHYMSWIRQTPGKGLEWVSYISSSGTYTNYADSVKGRFIISRDNAKNSLFLQMNSLRAEDTAVYYCAREGSPGGQGTLVTVSS
VL: DVVMTQSPLSLPVTLGQPASISCRSSQSLVFSDGNTYLNWFQQRPGQSPRRLIYKVSDRDPGVPERFSGSGSGTDFTLKISRVEAEDIGVYYCMQGSHWPFTFGPGTKVDIKR
B5: h19 (antibody, V domains shown)
VH: B4 VH with T28S, H32S, T40A, G55S, T56S, I69T, F80Y, A88V
VL: B4 VL with M4L, F31D, N39S, K55R, D58N, P61S, E65D, I88V, S97T
B6: 18 (antibody, V domains shown)
VH: B4 VH with D31A, H32S, T40A, G55S, I69T, F80Y, N84D, V93M, Y95F
VL: DVVMTQSPLSLPVTLGQSASISCRSSQSLVYSDGDTFLSWFQQRPGQSPRRLIYMVSNRDPGVPDRFSGSGSGTDFTLKISRVEAEDVGIYYCMQGTNWPFTFGPGTRVDIKR
B7: h14 (antibody, V domains shown)
VH: B4 VH with K13E, T40A, K43R, S53N, T56G, I69T, F80Y
VL: B4 VL with I21M, F31D, N39S, P61S, E65D, S70G, I88V, V90I, S97T, H98R
B8: h21 (antibody, V domains shown)
VH: B4 VH with D31A, T40A, S53P, G55S, T56S, N59V, I69T
VL: B4 VL with S26T, F31D, N39S, P61S, E65D, V90I, S97T
B9: h2 (antibody, V domains shown)
VH: B4 VH with D31A, T40A, S53P, G55S, T56S, N59V, I69T
VL: B4 VL with S25P, F31D, N39S, P61S, E65D, G73V, I88V, V90I, S97T
B10: h5 (antibody, V domains shown)
VH: B4 VH with T40A, S49A, G55S, N59K, A61G, I69T, F80Y
VL: B4 VL with N39S, Y54F, P61S, E65D, V83M, I88V, S97T, H98Q
B11: h22 (antibody, V domains shown)
VH: B4 VH with D31A, T40A, S53P, G55S, T56S, N59V, I69T
VL: B4 VL with S28N, F31D, N39S, P61S, E65D, S81N, V90I
B12: h17 (antibody, V domains shown)
VH: B4 VH with K13E, T40A, K43R, S53N, T56G, I69T, F80Y
VL: DVVMTQSPLSLPVTLGQPASMSCRSSQSLVDSDGNTYLSWFQQRPGQSPRRLIYKVSDRDSGVPDRFSGGGSGTDFTLKIRRVEAEDVGIYYCMQGTRWPFTFGPGTKVDIKR
B13: h11 (antibody, V domains shown)
VH: QVQLVESGGGLVKPGGSLRLSCEASGFTFSAHYMSWIRQAPGKGLEYVSYISGSSSYTNYVDSVKGRFTISRDNAKNSLYLQMNSLRVEDTAVYYCAREGSPGGQGTLVTVSS
VL: B12 VL with M4L, M21I, Q42H, G70S, R81S, I90V, Q95E, R98H
B14: h16 (antibody, V domains shown)
VH: B13 VH with G53S, V61A, V88A
VL: B12 VL with M4L, M21I, Q42H, G70S, R81S, I90V, Q95E, R98H
B15: h13 (antibody, V domains shown)
VH: B4 VH with T28S, H32S, I37L, T40A, G55S, T56S, N59K, I69T, F80Y
VL: DVVLTQSPLSLPVTLGQPASFSCRSSQSLVFTDGNTFLSWFLQRPGQSPRRLIYRVSNRDPGVPDRFSGSGSGTDFTLKISRVEAEDVGVYYCMQGTQWPFTFGPGTKVDIKR
B16: h10 (antibody, V domains shown)
VH: B13 VH with G53S
VL: B12 VL with M4L, M21I, Q42H, G70S, R81S, I90V, Q95E, R98H
B17: h15 (antibody, V domains shown)
VH: B13 VH with K13R, E23A, A31D, Y47W, N59K, V61A, V88A
VL: B15 VL with F21I, T32S, S39A, L42Q, V56I, P61S, G73D
B18: h20 (antibody, V domains shown)
VH: B13 VH with E23A, T28S, A31D, H32S, Y47W, G53S
VL: B12 VL with M21I, K55R, D58N, G70S, R81S, I90V, R98H, K112R
B19: h25 (antibody, V domains shown)
VH: EVQLVESGGGLVKRGGSLRLSCAASGFTFSSYSMHWVRQAPGKGLEWVSSISSRSTYIYYADSVKGRFTISRDNAKNSLYLQMNSLSAEDTAVYYCARGSGSYYVFDYWGQGTLVTVSS
VL: ELVMTQSPATLSVSPGERATLSCRASQSVSSNLAWYQQKPGQAPRLLIYGASSRATNIPARFSGSGSGTEFTLTISSLQSEDFAVYYCQQYDNWPMYSFGQGTKLEIKR
B20: h1 (antibody, V domains shown)
VH: B19 VH with R14P, H35S, T56N, M83V, S87R
VL: EIVMTQSPATLSVSPGDRATLSCRASQSISSDLAWYQQKPGQAPRLLIYAASTRATGFPARFSGSGSGTEFTLTISSLQPEDFAVYYCQQYNNWPMYAFGQGTKLEIKR
B21: h27 (antibody, V domains shown)
VH: B19 VH with R14P, H35S, T56N, F68I, S87R
VL: B20 VL with I2L, V13M, S30R, A50D, F58I, T74S, P80S, A98T
B22: h12 (antibody, V domains shown)
VH: QVQLVESGGGLVKPGGSLRLSCAASGFSFSDSYMSWLRQAPGKGLEWVSYISSSSSYTKYTDSVKGRFTISRDNAKNSLYLQMSSLRAEDTAVYYCAREGSPGGQGTLVTVSS
VL: B15 VL with L4M

Target: T1, GST-ZZS05 fusion protein (UniProt P08515 1-218 = GST)
T1 sequence (P08515 1-218, tags or fused parts left off): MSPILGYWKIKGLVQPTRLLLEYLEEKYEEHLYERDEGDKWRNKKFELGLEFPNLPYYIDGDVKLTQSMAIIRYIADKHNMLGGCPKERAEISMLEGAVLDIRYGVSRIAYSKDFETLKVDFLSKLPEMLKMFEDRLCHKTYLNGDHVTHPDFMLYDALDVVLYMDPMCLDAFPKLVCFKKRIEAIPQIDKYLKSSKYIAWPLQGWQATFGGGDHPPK
Assay: Biacore SPR as in Example 3.3

Row | Binder | Kd [nM]
1 | B1 | 1.2

Target: T2, GST-ZZS01 fusion protein (UniProt P08515 1-218 = GST)
T2 sequence (P08515 1-218, tags or fused parts left off): as above
Assay: Biacore SPR, 25 C; GST-antigen captured on anti-GST CM5 chip, antibody injected

Row | Binder | Kd [nM] | koff [s⁻¹] | kon [M⁻¹ s⁻¹]
2 | B2 | 4.82 | 1.19e-05 | 2480

Target: T1, GST-ZZS05 fusion protein
Assay: as above

Row | Binder | Kd [nM] | koff [s⁻¹] | kon [M⁻¹ s⁻¹]
3 | B3 | 6.9 | 0.000949 | 137000

Target: T2, GST-ZZS01 fusion protein
Assay: Biacore SPR as in Example 3.3

Row | Binder | Kd [nM]
4 | B4 | 2.86
5 | B5 | 3.53
6 | B6 | 3.46
7 | B7 | 4.39
8 | B8 | 1.48
9 | B9 | 5.24
10 | B10 | 10.1
11 | B11 | 0.104
12 | B12 | 3.18
13 | B13 | 0.652
14 | B14 | 2.17
15 | B15 | 3.66
16 | B16 | 0.0847
17 | B17 | 5.78
18 | B18 | 2
19 | B19 | 0.32
20 | B20 | 0.289
21 | B21 | 0.16
22 | B22 | 6.03
